Biological target: the molecule itself
Assay: SEC; 500 µl freshly purified SepF-His on Superdex 200 10/300 GL in Buffer A (1.5 M KCl, 100 mM NaCl, 50 mM HEPES, 1 mM DTT, pH 7.5), 0.5 ml/min; gel filtration standard run under the same conditions; no protein eluted at volumes of higher oligomers

B1: SepF-His (H. volcanii SepF expressed in E. coli) (natural protein, Haloferax volcanii, UniProt D4H018 1-118, looked up)
chain: MGIMSKILGGGGSRTTEDYVELDLDDFDTARGDAGLSVHIAEIGGQQDVIAIKDAVYDGNLVIADITRHTTSDSTMEHIIDDLRQVAREVDGDIVQKGDDQIVITPTGISISRQKLNG
notes: SepF of Haloferax volcanii, encoded by hvo_0392, 118 amino acids, 12.6 kDa; sepF amplified from genomic DNA of strain H26 and cloned by FX-cloning; FX-cloning may leave extra residues at the ends; also called purified SepF; Hvo_0392
stoichiometry N: 2

Reference: paper PMC8187382, “The archaeal protein SepF is essential for cell division in Haloferax volcanii” (Nature Communications, 2021)
